What is called Kd is a measure of binding affinity in units of concentration. The low end stands for a tighter complex, the high end for a looser complex.

First the molecules themselves.
B1: Variant H3 24-8 (V27M, K49E) (designed binder)
chain: GTGMVAISMDTDKISNSFEDCKYFLIMVVSAGWTNTIFNDESGKKEIVEMNVDAIICKNISEENYKKFSKKIEIYHAEGDDVDKNISLFIEGELSKISNPLE
B2: Variant H3 24-3b (V28M) (designed binder)
chain: B1 chain with M27V, V28M, E49K
B3: Variant H3 24-3a (I2T, V29E) (designed binder)
chain: GTGMVAISMDTDKISNSFEDCKYFLIVVESAGWTNTIFNDESGKKEIVKMNVDAIICKNISEENYKKFSKKIEIYHAEGDDVDKNISLFIEGELSKISNP
B4: Variant H3 24-2 (V27M, F38S, K49E) (designed binder)
chain: B3 chain with T2I, V27M, E29V, F38S, K49E

Substitutions are numbered along the chain they refer to. Numbers in names are those of the source.

The target of this experiment is H3 subtype hemagglutinin (strain not stated).
B1 registered a dissociation constant (Kd) of 14.8 nM.
B2 returned a dissociation constant Kd of 12.7 nM.
B3 yielded a Kd of 7.92 nM.
Next, B4: 8.97 nM.

For the origin of these results see US20150376238A1 (University of Washington, published 2015).
